# Results taken from patent publication US20260242839A1, “GLYCOSIDE PRODUCT BIOSYNTHESIS AND RECOVERY” (Manus Bio Inc., priority 2023, published 2026).
# System: Mog. IIE or Mog. IE
# Test: branched glycosylation reactions by cells expressing UGT enzymes
# Type: cell-based, E. coli
# Details: Mog. IIE or Mog. IE fed; 37° C., 48 hr; LC-MS/MS
# Protocol: Mog. IIE or Mog. IE was fed to cells expressing various UGT enzymes. Reactions were incubated at 37° C. for 48 hr. Products were quantified by LC-MS/MS with authentic standards of each compound. “Indirect” evidence means that consumption of substrate was observed.
Molecule,C3 1-2,C3 1-6,C24 1-2,C24 1-6
"SEQ ID NO: 29: OsUGT1-2 (Oryza sativa) (protein, listed as Oryza sativa) MDSGYSSSYAAAAGMHVVICPWLAFGHLLPCLDLAQRLASRGHRVSFVSTPRNISRLPPVRPALAPLVAFVALPLPRVEGLPDGAESTNDVPHDRPDMVELHRRAFDGLAAPFSEFLGTACADWVIVDVFHHWAAAAALEHKVPCAMMLLGSAHMIASIADRRLERAETESPAAAGQGRPAAAPTFEVARMKLIRTKGSSGMSLAERFSLTLSRSSLVVGRSCVEFEPETVPLLSTLRGKPITFLGLMPPLHEGRREDGEDATVRWLDAQPAKSVVYVALGSEVPLGVEKVHELALGLELAGTRFLWALRKPTGVSDADLLPAGFEERTRGRGVVATRWVPQMSILAHAAVGAFLTHCGWNSTIEGLMFGHPLIMLPIFGDQGPNARLIEAKNAGLQVARNDGDGSFDREGVAAAIRAVAVEEESSKVFQAKAKKLQEIVADMACHERYIDGFIQQLRSYKD",No,No,No,Yes
SEQ ID NO: 39: SgUGT94-289-1 (Siraitia grosvenorii) (protein) MDAQRGHTTTILMFPWLGYGHLSAFLELAKSLSRRNFHIYFCSTSVNLDAIKPKLPSSSSSDSIQLVELCLPSSPDQLPPHLHTTNALPPHLMPTLHQAFSMAAQHFAAILHTLAPHLLIYDSFQPWAPQLASSLNIPAINFNTTGASVLTRMLHATHYPSSKFPISEFVLHDYWKAMYSAAGGAVTKKDHKIGETLANCLHASCSVILINSFRELEEKYMDYLSVLLNKKVVPVGPLVYEPNQDGEDEGYSSIKNWLDKKEPSSTVFVSFGSEYFPSKEEMEEIAHGLEASEVHFIWVVRFPQGDNTSAIEDALPKGFLERVGERGMVVKGWAPQAKILKHWSTGGFVSHCGWNSVMESMMFGVPIIGVPMHLDQPFNAGLAEEAGVGVEAKRDPDGKIQRDEVAKLIKEVVVEKTREDVRKKAREMSEILRSKGEEKMDEMVAAISLFLKI,No,Yes,Yes,Yes
"SEQ ID NO: 79: PgUGT94_B1 (Panax ginseng) (protein, Panax ginseng) MADNQNGRISIALLPFLAHGHISPFFELAKQLAKRNCNVFLCSTPINLSSIKDKDSSASIKLVELHLPSSPDLPPHYHTTNGLPSHLMLPLRNAFETAGPTFSEILKTLNPDLLIYDFNPSWAPEIASSHNIPAVYFLTTAAASSSIGLHAFKNPGEKYPFPDFYDNSNITPEPPSADNMKLLHDFIACFERSCDIILIKSFRELEGKYIDLLSTLSDKTLVPVGPLVQDPMGHNEDPKTEQIINWLDKRAESTVVFVCFGSEYFLSNEELEEVAIGLEISTVNFIWAVRLIEGEKKGILPEGFVQRVGDRGLVVEGWAPQARILGHSSTGGFVSHCGWSSIAESMKFGVPVIAMARHLDQPLNGKLAAEVGVGMEVVRDENGKYKREGIAEVIRKVVVEKSGEVIRRKARELSEKMKEKGEQEIDRALEELVQICKKKKDEQ",No,No,No,Yes
"SEQ ID NO: 74: CcUGT_1,6 (Coffea canephora) (protein, listed as Coffea canephora) MAENHATFNVLMLPWLAHGHVSPYLELAMKLTARNFNVYLCSSPATLSSVRSKLTEKFSQSIHLVELHLPKLPELPAEYHTTNGLPPHLMPTLKDAFDMAKPNFCNVLKSLKPDLLIYDLLQPWAPEAASAFNIPAVVFISSSATMTSFGLHFFKNPGTKYPYGNTIFYRDYESVFVENLKKRDRDTYRVVNCMERSSKIILIKGFKEIEGKYFDYFSCLTGKKVVPVGPLVQDPVLDDEDCRIMQWLNKKEKGSTVFVSFGSEYFLSKEDMEEIAHGLELSNVDFIWVVRFPKGENIVIEETLPKGFFERVGERGLVVNGWAPQAKILTHPNVGGFVSHCGWNSVMESMKFGLPIVAMPMHLDQPINARLIEEVGAGVEVLRDSKGKLHRERMAETINKVTKEASGEPARKKARELQEKLELKGDEEIDDVVKELVQLCATKNKRNGLHCYN",No,Yes,No,Yes
"SEQ ID NO: 75: CeUGT_1,6 (Coffea eugenioides) (protein, listed as Coffea sp.) MAENHATFNVLMLPWLAHGHVSPYLELAKKLTARNFNVYLCSSPATLSSVRSKLTEKFSQSIHLVELHLPKLPELPAEYHTTNGLPPHLMPTLKDAFDMAEPNFCNVLKSLKPDLLIYDLLQPWAPEAASAFNIPAVVFISSSATMTSFGLHFFKNPGTKYPYGNTIFYRDYESVFVENLKRRDRDTYRVVNCMERSSKIILIKGFKEIEGKYFDYFSCLTGKKVVPVGPLVQDPVLDDEDCRIMQWLNKKEKGSTVFVSFGSEYFLSKEDMEEIAHGLELSNVDFIWVVRFPKGENIVIEETLPKGFFERVGERGLVVNGWAPQAKILTHPNVGGFVSHCGWNSVMESMKFGLPIIAMPMHLDQPINARLIEEVGAGVEVLRDSKGKLHRERMAETINKVTKEASGESVRKKARELQEKLELKGDEEIDDVVKELVQLCATKNKRNGLHYN",Yes,Yes,Yes,Yes
"SEQ ID NO: 76: CeUGT_1,6.2 (Coffea eugenioides) (protein, listed as Coffea sp.) MAENHATFNVLMLPWLAHGHVSPYLELAKKLTARNFNVYLCSSPATLSSVRSKLTEKFSQSIHLVELHLPKLPELPAEYHTTNGLPPHLMPTLKDAFDMAKPNFCNVLKSLKPDLLIYDLLQPWAPEAASAFNIPAVVFISSSATMTSFGLHFFKNPGTKYPYGNAIFYRDYESVFVENLTRRDRDTYRVINCMERSSKIILIKGFNEIEGKYFDYFSCLTGKKVVPVGPLVQDPVLDDEDCEIMQWLNKKEKVSTVFVSFGSEYFLSKKDMEEIAHGLELSNVDFIWVVRFPKGENIVIEETLPKGFFERVGERGLVVNGWAPQAKILTHPNVGGFVSHCGWNSVMESMKFGLPIIAMPMHLDQPINARLIEEVGAGVEVLRDSKGKLHRERMAETINKVMKEASGESVRKKARELQEKMDLKGDEEIDDVVKELVQLCATKNKRNGLHYY",No,Yes,No,Yes
"SEQ ID NO: 60: UGT_1,6 (Coffea Arabica) (protein, listed as Coffea arabica) MENHATFNVLMLPWLAHGHVSPYLELAKKLTARNFNVYLCSSPATLSSVRSKLTEKFSQSIHLVELHLPKLPELPAEYHTTNGLPPHLMPTLKDAFDMAKPNFCNVLKSLKPDLLIYDLLQPWAPEAASAFNIPAVVFISSSATMTSFGLHFFKNPGTKYPYGNAIFYRDYESVFVENLTRRDRDTYRVINCMERSSKIILIKGFNEIEGKYFDYFSCLTGKKVVPVGPLVQDPVLDDEDCRIMQWLNKKEKGSTVFVSFGSEYFLSKKDMEEIAHGLEVSNVDFIWVVRFPKGENIVIEETLPKGFFERVGERGLVVNGWAPQAKILTHPNVGGFVSHCGWNSVMESMKFGLPIIAMPMHLDQPINARLIEEVGAGVEVLRDSKGKLHRERMAETINKVMKEASGESVRKKARELQEKLELKGDEEIDDVVKELVQLCATKNKRNGLHYY",No,Yes,Yes,Yes
SEQ ID NO: 77: SgUGT94-289-3.2 (Siraitia grosvenorii) (protein) MADAAQQGDTTTILMLPWLGYGHLSAFLELAKSLSRRNFHIYFCSTSVNLDAIKPKLPSSFSDSIQFVELHLPSSPEFPPHLHTTNGLPPTLMPALHQAFSMAAQHFESILQTLAPHLLIYDSLQPWAPRVASSLKIPAINFNTTGVFVISQGLHPIHYPHSKFPFSEFVLHNHWKAMYSTADGASTERTRKRGEAFLYCLHASCSVILINSFRELEGKYMDYLSVLLNKKVVPVGPLVYEPNQDGEDEGYSSIKNWLDKKEPSSTVFVSFGSEYFPSKEEMEEIAHGLEASEVNFIWVVRFPQGDNTSGIEDALPKGFLERAGERGMVVKGWAPQAKILKHWSTGGFVSHCGWNSVMESMMFGVPIIGVPMHVDQPFNAGLVEEAGVGVEAKRDPDGKIQRDEVAKLIKEVVVEKTREDVRKKAREMSEILRSKGEEKFDEMVAEISLLLKI,No,Yes,No,Yes
"SEQ ID NO: 78: OsJUGT_1,6 (Oryza sativa) (protein, listed as Oryza sativa) MAQAERERLRVLMFPWLAHGHINPYLELATRLTTTSSSQIDVVVHLVSTPVNLAAVAHRRTDRISLVELHLPELPGLPPALHTTKHLPPRLMPALKRACDLAAPAFGALLDELSPDVVLYDFIQPWAPLEAAARGVPAVHFSTCSAAATAFFLHFLDGGGGGGGRGAFPFEAISLGGAEEDARYTMLTCRDDGTALLPKGERLPLSFARSSEFVAVKTCVEIESKYMDYLSKLVGKEIIPCGPLLVDSGDVSAGSEADGVMRWLDGQEPGSVVLVSFGSEYFMTEKQLAEMARGLELSGAAFVWVVRFPQQSPDGDEDDHGAAAARAMPPGFAPARGLVVEGWAPQRRVLSHRSCGAFLTHCGWSSVMESMSAGVPMVALPLHIDQPVGANLAAELGVAARVRQERFGEFEAEEVARAVRAVMRGGEALRRRATELREVVARRDAECDEQIGALLHRMARLCGKGTGRAAQLGH",No,No,Yes,No
